Tested on: GII.4 Sydney (SYV) norovirus VLP, assembled capsid protein VP1 (Human norovirus GII.4 Sydney)
Assay: ELASA (plate binding)
Settings: VLP heated 75 C 1 min (partly denatured); 1 uM aptamer; ELASA: VLPs on polystyrene plate, blocked with 5% skim milk in PBS + 0.05% Tween 20 with 10 nM unrelated primers (2 h, room temperature), 1 uM biotinylated …

“AGTATACGTATTACCTGCAGCTGGGAAGAGGTCCGGTAAATGCAGGGTCAGCCCGGAGAGCGATATCTCGGAGATCTTGC [M6-2]” was tested, and the binding signal (% of signal with untreated VLP) was 20.1.

Source: publication PMC5093151
